Assay results taken from paper PMC12218921, “An adaptive peptide-binding site in ubiquitin receptor hRpn13 revealed by structural studies” (Nature Communications, 2025).

Tested on: hRpn13 Pru
Assay: 1H-15N HSQC NMR of 15N-labeled hRpn13 Pru (1–150)
Format: binding, human
Conditions: 0.1 mM 15N-labeled protein, 600 MHz, 25 °C, pH 6.5

B1: hRpn13_ΔMTT: hRpn13 Pru variant with ENT M1 – T3, ^aG, and ^bP deleted (protein)
chain: GSSGALFPSLVPGSRGASNKYLVEFRAGKMSLKGTTVTPDKRKGLVYIQQTDDSLIHFCWKDRTSGNVEDDLIIFPDDCEFKRVPQCPSGRVYVLKFKAGSKRLFFWMQEPKTDQDEEHCRKVNEYLNNPPMPGALGASGSSGHELSAL
modifications: left off: GST, N-terminal, cleaved
notes: hRpn13 Pru variant with ENT M1 – T3, ^aG, and ^bP deleted
HSQC differences of hRpn13_ΔMTT versus hRpn13 (1–150): changes for a subset of amino acids in the Pru helix and proteasome-binding surface
